Values of other authors, collected in paper PMC7927047.

Legend:
[1] = biological target: Cbl-b (Type I orientation, R904) (Homo sapiens) (UniProt Q13191); assay: NMR titration
[2] = biological target: Cbl-b (Type II orientation, R911) (Homo sapiens) (UniProt Q13191); assay: NMR titration
Cbl-b (Type II orientation, R911) (Homo sapiens), sequence (Q13191 whole entry): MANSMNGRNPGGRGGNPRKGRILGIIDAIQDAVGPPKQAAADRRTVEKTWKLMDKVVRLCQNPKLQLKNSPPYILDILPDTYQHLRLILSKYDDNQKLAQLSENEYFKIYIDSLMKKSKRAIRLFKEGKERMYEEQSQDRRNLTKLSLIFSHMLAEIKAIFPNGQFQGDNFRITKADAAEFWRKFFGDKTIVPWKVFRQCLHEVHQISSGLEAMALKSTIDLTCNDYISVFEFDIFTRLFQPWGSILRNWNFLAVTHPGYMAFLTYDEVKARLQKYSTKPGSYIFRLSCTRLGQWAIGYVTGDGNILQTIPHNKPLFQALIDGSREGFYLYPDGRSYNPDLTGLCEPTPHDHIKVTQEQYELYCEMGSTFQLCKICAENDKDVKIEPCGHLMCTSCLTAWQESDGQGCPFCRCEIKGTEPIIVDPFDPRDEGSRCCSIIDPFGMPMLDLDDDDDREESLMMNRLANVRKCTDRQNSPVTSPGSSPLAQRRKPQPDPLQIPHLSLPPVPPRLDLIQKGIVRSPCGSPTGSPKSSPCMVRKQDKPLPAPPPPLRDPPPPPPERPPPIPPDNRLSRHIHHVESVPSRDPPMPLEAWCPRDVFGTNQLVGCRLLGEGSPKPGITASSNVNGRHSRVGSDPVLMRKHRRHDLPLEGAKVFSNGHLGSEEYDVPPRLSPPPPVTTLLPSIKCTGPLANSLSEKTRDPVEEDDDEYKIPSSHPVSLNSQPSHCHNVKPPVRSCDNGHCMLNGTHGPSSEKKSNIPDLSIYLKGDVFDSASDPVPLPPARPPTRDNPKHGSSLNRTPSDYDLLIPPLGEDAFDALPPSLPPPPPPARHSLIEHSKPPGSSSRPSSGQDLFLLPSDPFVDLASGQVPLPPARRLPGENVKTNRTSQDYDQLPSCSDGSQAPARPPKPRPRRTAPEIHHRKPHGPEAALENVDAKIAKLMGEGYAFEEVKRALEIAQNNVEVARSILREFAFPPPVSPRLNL

CIN85 SH3, sequence (Q96B97 1-58): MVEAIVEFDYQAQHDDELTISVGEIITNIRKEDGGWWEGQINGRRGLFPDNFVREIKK
Cbl-b (Type I orientation, R904) (Homo sapiens), sequence (Q13191 whole entry): as the sequence (Q13191 whole entry) above

Kd [1]: 46.9 µM
Kd [2]: 2 µM
Substance: CIN85 SH3 (from UniProt Q96B97)
